Assay results reported in article PMC516023 (2004).

B1: HIV-1 Vpr, wild type [HIV-1] / GST-fused di-W peptide WWSFKSV (GST-B4) (parent complex)
chain 1: MEQAPEDQGPQREPHNEWTLELLEELKNEAVRHFPRIWLHGLGQHIYETYGDTWAGVEAIIRILQQLLFIHFRIGCRHSRIGVTRQRRARNGASRS
chain 2: WWSFKSV

Variants of: B1
Assay: GST pull-down, autoradiography scanning; parent: 100; read off a plot

chain 1 R87A, chain 1 R88A was tested. Which percent of parent did it give?
The percent of parent was ~71%.

chain 1 F34I was tested. Which percent of parent did it give?
The percent of parent was ~80%.

Which percent of parent does the source give for chain 1 E25K here?
Its percent of parent is ~86%.

chain 1 R80A was tested. Which percent of parent did it give?
Its percent of parent is ~88%.

How did the percent of parent turn out when chain 1 A30F was run?
Its percent of parent is ~6%.

chain 1 L23F was tested. Which percent of parent did it give?
The percent of parent was ~10%.

How did the percent of parent turn out when chain 1 I63K was run?
Its percent of parent is ~80%.

With chain 1 E21K as the variant, how does the percent of parent read?
The percent of parent was ~7%.

Which percent of parent does the source give for chain 1 R62P here?
The percent of parent was ~4%.
